In paper PMC3218020, “Subtype Differences in Pre-Coupling of Muscarinic Acetylcholine Receptors” (PLoS ONE, 2011):

What was measured:
[1] = target: Gi/o G-proteins (Chinese hamster (endogenous in CHO))
[2] = target: G_(q/11) G-proteins (Chinese hamster (endogenous in CHO))
[3] = target: G_(s/olf) G-proteins (Chinese hamster (endogenous in CHO))
[4] = target: G-proteins (Chinese hamster (endogenous in CHO))
[5] = target: T1, M2 muscarinic acetylcholine receptor (Homo sapiens, UniProt P08172); assay: radioligand binding, CHO membranes; conditions: labelled compound; antagonist; […] °C, pH […]
T1 construct: gene CHRM2; full-length receptor stably expressed in CHO cells, crude membranes
T1 sequence (P08172 1-466): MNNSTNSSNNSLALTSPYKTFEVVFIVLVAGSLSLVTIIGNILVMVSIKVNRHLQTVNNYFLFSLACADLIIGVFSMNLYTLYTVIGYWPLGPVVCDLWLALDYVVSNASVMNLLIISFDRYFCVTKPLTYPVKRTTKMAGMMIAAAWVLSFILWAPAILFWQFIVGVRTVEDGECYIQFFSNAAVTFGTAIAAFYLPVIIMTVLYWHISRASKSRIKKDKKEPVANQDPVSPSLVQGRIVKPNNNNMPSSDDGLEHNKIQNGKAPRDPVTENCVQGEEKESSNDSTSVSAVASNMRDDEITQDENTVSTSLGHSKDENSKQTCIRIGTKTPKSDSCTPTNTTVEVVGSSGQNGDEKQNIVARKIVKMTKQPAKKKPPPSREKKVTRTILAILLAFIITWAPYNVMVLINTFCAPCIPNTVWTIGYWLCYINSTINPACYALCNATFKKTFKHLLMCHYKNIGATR

Compound	EMAX of carbachol-stimulated [35S]GTPγS binding to Gi/o G-proteins via the receptor (scintillation proximity assay, CHO membranes, carbachol 0.1 µM to 1 mM) (fold increase of basal binding) [1]	EMAX of carbachol-stimulated [35S]GTPγS binding to G (q/11) G-proteins via the receptor (scintillation proximity assay, CHO membranes, carbachol 0.1 µM to 1 mM) (fold increase of basal binding) [2]	EMAX of carbachol-stimulated [35S]GTPγS binding to G (s/olf) G-proteins via the receptor (scintillation proximity assay, CHO membranes, carbachol 0.1 µM to 1 mM) (fold increase of basal binding) [3]	fraction of low-affinity sites (f low) for carbachol in competition with 1 nM [3H]NMS, membranes of the newly prepared CHO cell line [4]	radioligand binding, CHO membranes [5]
human M2 muscarinic acetylcholine receptor (from UniProt P08172 1-466)	3.44	1.63	1.93		
human M4 muscarinic acetylcholine receptor (from UniProt P08173 1-479)	3.15	1.59	2.18		
wild-type human M1 muscarinic receptor (newly prepared CHO cell line) (from UniProt P11229 1-460)				72 percent	
human M1 muscarinic acetylcholine receptor (from UniProt P11229 1-460)	2.01	3.9	1.92		
C[N+]1(C)[C@@H]2C[C@@H](OC(=O)[C@H](CO)c3ccccc3)C[C@H]1[C@@H]1O[C@@H]12 [[3H]-N-methylscopolamine]					N-methylscopolamine binding was measured directly in saturation experiments using six concentrations
human M3 muscarinic acetylcholine receptor (from UniProt P20309 1-590)	2.16	3.31	2.16		
